Target: dtx_drome dx (UniProt Q23985)
Sequence (Q23985 whole entry): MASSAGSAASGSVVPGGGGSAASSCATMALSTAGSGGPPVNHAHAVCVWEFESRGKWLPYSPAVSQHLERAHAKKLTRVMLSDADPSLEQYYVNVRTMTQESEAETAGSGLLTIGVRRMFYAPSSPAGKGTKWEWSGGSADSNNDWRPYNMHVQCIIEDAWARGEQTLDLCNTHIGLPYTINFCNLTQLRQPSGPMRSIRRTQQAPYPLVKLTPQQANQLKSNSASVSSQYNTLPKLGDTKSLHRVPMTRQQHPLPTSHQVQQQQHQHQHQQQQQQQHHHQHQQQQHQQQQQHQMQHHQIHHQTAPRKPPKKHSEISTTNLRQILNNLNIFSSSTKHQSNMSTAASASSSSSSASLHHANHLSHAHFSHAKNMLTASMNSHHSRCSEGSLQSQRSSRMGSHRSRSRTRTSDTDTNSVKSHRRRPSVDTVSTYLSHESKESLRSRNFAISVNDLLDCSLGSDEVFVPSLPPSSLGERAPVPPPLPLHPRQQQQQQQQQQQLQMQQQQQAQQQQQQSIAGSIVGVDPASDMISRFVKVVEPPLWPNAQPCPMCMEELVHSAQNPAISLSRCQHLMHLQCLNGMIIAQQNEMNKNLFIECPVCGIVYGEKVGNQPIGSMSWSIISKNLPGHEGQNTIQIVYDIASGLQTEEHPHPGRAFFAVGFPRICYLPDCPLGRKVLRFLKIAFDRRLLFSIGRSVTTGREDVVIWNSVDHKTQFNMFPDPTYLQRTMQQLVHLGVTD

Substance: Neurogenic locus Notch protein (Drosophila melanogaster (Fruit fly)), P07207 R2027A
- effect of a mutation on the interaction: disrupting interaction strength

From IntAct's records for PubMed 24855951
